# Measurements: patent publication US20240270821A1, “GIP/GLP1/GCG TRI-RECEPTOR AGONISTS AND USES THEREOF” (priority 2023, published 2024)
# T1: human GIP receptor (human) (UniProt P48546)
# T1 sequence (looked up): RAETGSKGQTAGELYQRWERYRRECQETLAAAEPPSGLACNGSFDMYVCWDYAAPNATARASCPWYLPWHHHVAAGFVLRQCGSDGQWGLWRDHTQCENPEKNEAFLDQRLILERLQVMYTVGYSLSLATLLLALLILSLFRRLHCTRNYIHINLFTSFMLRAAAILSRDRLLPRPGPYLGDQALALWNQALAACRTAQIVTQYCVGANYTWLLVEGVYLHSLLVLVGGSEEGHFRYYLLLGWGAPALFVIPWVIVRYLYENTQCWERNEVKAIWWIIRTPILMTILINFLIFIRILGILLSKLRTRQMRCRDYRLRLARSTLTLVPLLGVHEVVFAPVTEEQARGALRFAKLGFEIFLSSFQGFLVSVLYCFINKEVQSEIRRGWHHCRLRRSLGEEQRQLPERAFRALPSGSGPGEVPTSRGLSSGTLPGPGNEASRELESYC
# Tests used:
# Assay in all cases: cell-based or functional assay
# [1] = target: human glucagon receptor (human) (UniProt P47871)
# [2] = target: hGLP-1R (Homo sapiens, UniProt P43220)
# [3] = target: T1, human GIP receptor (human)
# Sequence of hGLP-1R (P43220 24-463): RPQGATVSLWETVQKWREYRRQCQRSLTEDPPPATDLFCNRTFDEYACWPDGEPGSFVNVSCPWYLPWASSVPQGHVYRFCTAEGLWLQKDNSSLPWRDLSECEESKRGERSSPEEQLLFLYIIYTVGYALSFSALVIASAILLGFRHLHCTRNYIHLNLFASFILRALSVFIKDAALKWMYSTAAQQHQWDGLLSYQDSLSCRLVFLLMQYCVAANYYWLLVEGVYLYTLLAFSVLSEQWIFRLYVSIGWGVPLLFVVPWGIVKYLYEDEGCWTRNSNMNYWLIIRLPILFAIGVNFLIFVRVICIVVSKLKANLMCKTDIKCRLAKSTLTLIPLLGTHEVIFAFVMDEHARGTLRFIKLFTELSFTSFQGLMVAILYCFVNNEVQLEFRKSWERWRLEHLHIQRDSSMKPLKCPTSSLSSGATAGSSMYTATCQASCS
# Sequence of human glucagon receptor (human) (P47871 26-477): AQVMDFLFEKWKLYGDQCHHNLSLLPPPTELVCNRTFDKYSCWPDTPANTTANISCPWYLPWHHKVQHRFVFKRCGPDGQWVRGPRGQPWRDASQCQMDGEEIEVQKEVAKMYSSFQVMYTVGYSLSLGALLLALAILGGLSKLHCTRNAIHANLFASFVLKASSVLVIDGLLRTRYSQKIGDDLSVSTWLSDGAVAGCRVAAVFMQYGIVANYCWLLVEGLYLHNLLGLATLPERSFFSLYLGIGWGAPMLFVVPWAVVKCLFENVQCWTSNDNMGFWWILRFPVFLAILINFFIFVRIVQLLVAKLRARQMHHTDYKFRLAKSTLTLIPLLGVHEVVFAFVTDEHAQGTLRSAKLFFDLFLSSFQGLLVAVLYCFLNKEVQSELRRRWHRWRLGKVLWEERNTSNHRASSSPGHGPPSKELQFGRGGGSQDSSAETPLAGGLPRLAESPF
Binder,Relative cAMP EC50 [1],"cAMP Rel EC50, nM (1% HSA) [1]",Relative cAMP EC50 [2],"cAMP Rel EC50, nM (1% HSA) [2]",Relative cAMP EC50 [3],"cAMP Rel EC50, nM (1% HSA) [3]","Relative cAMP EC50, nM (0.1% casein) [1]","cAMP Rel EC50 (receptor-expressing HEK-293 cells, 1% HSA) [1]","Relative cAMP EC50, nM (0.1% casein) [2]","cAMP Rel EC50 (receptor-expressing HEK-293 cells, 1% HSA) [2]","Relative cAMP EC50, nM (0.1% casein) [3]","cAMP Rel EC50 (receptor-expressing HEK-293 cells, 1% HSA) [3]",cAMP Rel EC50 (in the presence of 1% HSA) [1],cAMP Rel EC50 (in the presence of 1% HSA) [2],cAMP Rel EC50 (in the presence of 1% HSA) [3]
YXQGTXTSDXSIXLDXKAQXAFIEYLEEGGPSSGAPPPS (synthetic construct; SITE 2: note = 2-Aminoisobutyric Acid; SITE 6: note = alpha-methyl-2-fluoro-L-phenylalanine; SITE 10: note = 3-(4-Pyridyl)-L-alanine; SITE 13: note = alpha-methyl-leucine; SITE 16: note = L-ornithine; SITE 17: note = Lysine is chemically modified through conjugation of the epsil) [Example 441],8 nM,855 nM,0.365 nM,24.7 nM,0.0239 nM,1.96 nM,,,,,,,,,
YXQGTXTSDXSIXLDKKAQXAFIEYLEEGGPSSGAPEPS (synthetic construct; SITE 2: note = 2-Aminoisobutyric Acid; SITE 6: note = alpha-methyl-2-fluoro-L-phenylalanine; SITE 10: note = 3-(4-Pyridyl)-L-alanine; SITE 13: note = alpha-methyl-leucine; SITE 17: note = Lysine is chemically modified through conjugation of the epsilon-amino group of the Lysine) [Example 443],6.09 nM,265 nM,0.572 nM,34.3 nM,0.0291 nM,1.57 nM,,,,,,,,,
YXQGTXTSDXSIXLDKKAQXAFIEYLEEGGPSSGEPPPS (synthetic construct; SITE 2: note = 2-Aminoisobutyric Acid; SITE 6: note = alpha-methyl-2-fluoro-L-phenylalanine; SITE 10: note = 3-(4-Pyridyl)-L-alanine; SITE 13: note = alpha-methyl-leucine; SITE 17: note = Lysine is chemically modified through conjugation of the epsilon-amino group of the Lysine) [Example 442],5.66 nM,342 nM,0.267 nM,23.9 nM,0.0237 nM,1.81 nM,,,,,,,,,
"YXQGTXTSDXXILLDKKAQXAFIEYLEEGGPSSGAPPPE (acylated Lys, C-terminal amide, non-natural residues; synthetic construct; SITE 2: note = 2-Aminoisobutyric Acid; SITE 6: note = alpha-methyl-2-fluoro-L-phenylalanine; SITE 10: note = 3-(3-Pyridyl)-L-alanine; SITE 11: note = alpha-methyl-L-serine; SITE 17: note = Lysine is chemically modified through conjugation of the epsilon-amino group of the Lysine) [Example 465]",,,,,,,1.5 nM,233 nM,0.575 nM,56.3 nM,0.148 nM,44.6 nM,,,
YXQGTXTSDXSIXLDKKAQXAFIEYLEEGGPSSGAPPPE (synthetic construct; SITE 2: note = 2-Aminoisobutyric Acid; SITE 6: note = alpha-methyl-2-fluoro-L-phenylalanine; SITE 10: note = 3-(4-Pyridyl)-L-alanine; SITE 13: note = alpha-methyl-leucine; SITE 17: note = Lysine is chemically modified through conjugation of the epsilon-amino group of the Lysine) [Example 445],10.1 nM,448 nM,0.731 nM,23.2 nM,0.0206 nM,2.41 nM,,,,,,,,,
"YXQGTXTSDXXILLDKKAQXAFIEYLEEGGPSSGAPPPE (Aib, αMeF(2F), 4Pal, αMeS, acylated Lys, amide; synthetic construct; SITE 2: note = 2-Aminoisobutyric Acid; SITE 6: note = alpha-methyl-2-fluoro-L-phenylalanine; SITE 10: note = 3-(4-Pyridyl)-L-alanine; SITE 11: note = alpha-methyl-L-serine; SITE 17: note = Lysine is chemically modified through conjugation of the epsilon-amino group of the Lysine) [Example 464]",,,,,,,1.25 nM,194 nM,0.466 nM,45.5 nM,0.072 nM,19.9 nM,,,
YXQGTXTSDXSIXLDKKAQXAFIEYLSEGGPSSGAPPPS (synthetic construct; SITE 2: note = 2-Aminoisobutyric Acid; SITE 6: note = alpha-methyl-2-fluoro-L-phenylalanine; SITE 10: note = 3-(4-Pyridyl)-L-alanine; SITE 13: note = alpha-methyl-leucine; SITE 17: note = Lysine is chemically modified through conjugation of the epsilon-amino group of the Lysine) [Example 446],8.34 nM,516 nM,0.696 nM,24.5 nM,0.0351 nM,3.01 nM,,,,,,,,,
YXQGTFTSDFSKXLDKKAQXAFIEWLIEGGPSSGAPPPSEG (synthetic construct; SITE 2: note = 2-Aminoisobutyric Acid; SITE 13: note = alpha-methyl-leucine; SITE 17: note = Lysine is chemically modified through conjugation of the epsilon-amino group of the Lysine side chain with (2-[2-(2-Amino-ethoxy)-ethoxy]-acetyl)-(gamma-Glu)-CO-(CH2) 18-CO2H; SITE 20: n) [Example 40],12.3 nM,,0.693 nM,,0.139 nM,,,,,,,,2750 nM,138 nM,76.7 nM
YXQGTXTSDXXIXLDXKAQXSFIEXLIEGGPSSGEPPPE (synthetic construct; SITE 2: note = 2-Aminoisobutyric Acid; SITE 6: note = alpha-methyl-2-fluoro-L-phenylalanine; SITE 10: note = 3-(4-Pyridyl)-L-alanine; SITE 11: note = alpha-methyl-L-serine; SITE 13: note = alpha-methyl-leucine; SITE 16: note = L-ornithine; SITE 17: note = Lysine is chemically mo) [Example 436],2.27 nM,182 nM,0.173 nM,11.7 nM,0.0294 nM,1.18 nM,,,,,,,,,
YXQGTXTSDXXIXLDXKAQXXFIEXLSEGGPSSGEPPPE (synthetic construct; SITE 2: note = 2-Aminoisobutyric Acid; SITE 6: note = alpha-methyl-2-fluoro-L-phenylalanine; SITE 10: note = 3-(4-Pyridyl)-L-alanine; SITE 11: note = alpha-methyl-L-serine; SITE 13: note = alpha-methyl-leucine; SITE 16: note = L-ornithine; SITE 17: note = Lysine is chemically mo) [Example 438],3.62 nM,431 nM,0.815 nM,41.1 nM,0.225 nM,53.8 nM,,,,,,,,,
